Results taken from patent publication US20060067886A1, “Gastrin receptor-avid peptide conjugates” (priority 1997, published 2006).

Experiment: in vivo
Conditions: SCID, mouse, iv, 4 uCi, total radioactivity
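Note: SCID mice bearing bilateral flank PC-3 or MDA-MB-231 xenografts, tail-vein dosing, organs sampled from 15 min to 72 h post-injection, radioactivity measured with NaI well counter.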

Protocol: In vivo pharmacokinetic studies in human tumor bearing SCID mice. […] The xenograft models were produced by bilateral flank inoculation of 5×10^6 cells (PC-3 or MDA-MB-231 cells) per site. Four to six weeks post inoculation, palpable tumors were observed. At this point, the mice were injected with 4 μCi of the complex in 100/μL of isotonic saline via the tail vein. The mice were euthanized and tissues and organs were excised from the animals at selected times post-injection (p.i.), including 15 minutes, 30 minutes, 1 hour, 4 hours, 24 hours, 48 hours, and 72 hours p.i. Subsequently, the tissues and organs were weighed and counted in a NaI well counter and the percent injected dose (% ID) and % ID/g of each organ or tissue calculated.

CSCC[C@H](NC(=O)[C@H](CC(C)C)NC(=O)[C@H](Cc1cnc[nH]1)NC(=O)CNC(=O)[C@@H](NC(=O)[C@H](C)NC(=O)[C@H](Cc1c[nH]c2ccccc12)NC(=O)[C@H](CCC(N)=O)NC(=O)CCCCCCCNC(=O)CN1CCN(CC(=O)O)CCN(CC(=O)O)CCN(CC(=O)O)CC1)C(C)C)C(N)=O [111In-DOTA-8-Aoc-BBN[7-14]NH2, metal not drawn]
tissue uptake at 1 h (blood): 0.35 ± 0.08 %ID/g | tissue uptake at 4 h (blood): 0.08 ± 0.1 %ID/g | tissue uptake at 24 h (blood): 0.02 ± 0.03 %ID/g | tissue uptake at 1 h (heart): 0.15 ± 0.11 %ID/g | tissue uptake at 24 h (heart): 0.08 ± 0.06 %ID/g | tissue uptake at 1 h (kidney): 3.29 ± 0.56 %ID/g | tissue uptake at 4 h (kidney): 1.76 ± 0.15 %ID/g | tissue uptake at 24 h (kidney): 0.98 ± 0.28 %ID/g | tissue uptake at 1 h (large intestine): 5.14 ± 0.42 %ID/g | tissue uptake at 4 h (large intestine): 5.58 ± 1.26 %ID/g | tissue uptake at 24 h (large intestine): 2.76 ± 0.49 %ID/g | tissue uptake at 1 h (liver): 0.31 ± 0.04 %ID/g | tissue uptake at 4 h (liver): 0.15 ± 0.09 %ID/g | tissue uptake at 24 h (liver): 0.07 ± 0.02 %ID/g | tissue uptake at 1 h (lung): 0.31 ± 0.09 %ID/g | tissue uptake at 4 h (lung): 0.06 ± 0.06 %ID/g | tissue uptake at 24 h (lung): 0.05 ± 0.05 %ID/g | tissue uptake at 1 h (muscle): 0.08 ± 0.05 %ID/g | tissue uptake at 4 h (muscle): 0.06 ± 0.13 %ID/g | tissue uptake at 1 h (pancreas): 23.4 ± 4.99 %ID/g | tissue uptake at 4 h (pancreas): 17.9 ± 5 %ID/g | tissue uptake at 24 h (pancreas): 5.06 ± 0.77 %ID/g | tissue uptake at 1 h (small intestine): 5.15 ± 0.19 %ID/g | tissue uptake at 24 h (small intestine): 0.9 ± 0.14 %ID/g | tissue uptake at 1 h (spleen): 0.57 ± 0.1 %ID/g | tissue uptake at 4 h (spleen): 0.48 ± 0.25 %ID/g | tissue uptake at 24 h (spleen): 0.21 ± 0.07 %ID/g | tissue uptake at 4 h (stomach): 0.27 ± 0.08 %ID/g | tissue uptake at 24 h (stomach): 0.33 ± 0.1 %ID/g | tissue uptake at 1 h (tumor (Tumor 1)): 0.91 ± 0.16 %ID/g | tissue uptake at 4 h (tumor (Tumor 1)): 0.36 ± 0.13 %ID/g | tissue uptake at 24 h (tumor (Tumor 1)): 0.22 ± 0.07 %ID/g | tissue uptake at 1 h (tumor (Tumor 2)): 0.74 ± 0.27 %ID/g | tissue uptake at 4 h (tumor (Tumor 2)): 0.4 ± 0.23 %ID/g | tissue uptake at 24 h (tumor (Tumor 2)): 0.24 ± 0.15 %ID/g | tissue uptake at 1 h (tumor): 0.83 ± 0.23 %ID/g | dose excreted at 1 h (urine): 72.1 ± 3.55% | dose excreted at 4 h (urine): 84.3 ± 2.09% | dose excreted at 24 h (urine): 83.8 ± 1.41%
